In patent publication US12540945B2, “Probe and method for identifying host cell protein impurities” (Regeneron Pharmaceuticals, Inc., priority 2021, dated 2026):

Test: Hydrolysis of polysorbate 80 by spiked LAL, oleic acid release by LC-MS
Assay type: biochemical
Conditions: 5 ppm LAL, 0.1% PS80, pH 5.5, after 2 days of incubation

B1: LAL: lysosomal acid lipase; recombinant CHO LAL generated in-house, spiked into PS80 samples (protein, UniProt P38571 77-399, looked up)
Lysosomal acid …: GPKPVVFLQHGLLADSSNWVTNLANSSLGFILADAGFDVWMGNSRGNTWSRKHKTLSVSQDEFWAFSYDEMAKYDLPASINFILNKTGQEQVYYVGHSQGTTIGFIAFSQIPELAKRIKMFFALGPVASVAFCTSPMAKLGRLPDHLIKDLFGDKEFLPQSAFLKWLGTHVCTHVILKELCGNLCFLLCGFNERNLNMSRVDVYTTHSPAGTSVQNMLHWSQAVKFQKFQAFDWGSSAKNYFHYNQSYPPTYNVKDMLVPTAVWSGGHDWLADVYDVNILLTQITNLVFHESIPEWEHLDFIWGLDAPWRLYNKIINLMRKYQ
modifications: recombinant, CHO-expressed
notes: lysosomal acid lipase; recombinant CHO LAL generated in-house, spiked into PS80 samples
Q: For B1, which “oleic acid released (hydrolysis of PS80)” value is on record?
A: Its value is 3 µg/mL.
